Source: patent US20070293451A1, “Regulation ao ApoB by Hsp110 proteins and related compositions and methods” (University of Pittsburgh, priority 2006, published 2007)

Assays:
[1] = system: albumin; test: Albumin secretion from McArdle cells (control); type: cell-based, rat; settings: Hsp110 over-expressed or not
Description: (§1) FIGS. 9A and 9B show the effect of Hsp110 over-expression on ApoB100 secretion from McArdle cells, a standard rat hepatoma cell model of lipoprotein metabolism. ApoB100 (FIG. 9A) and albumin (FIG. 9B) biogenesis and secretion were assessed by published pulse-chase analytical methods.
(§2) An Hsp110 expression vector was obtained from Dr. John Subjeck (Roswell Park Cancer Center, N.Y.), and either that vector or a vector control was introduced into McArdle cells—a rat hepatoma cell line that also expresses full-length ApoB (that is, ApoB100). […] As a control, there was no effect on albumin secretion from these cells, regardless of whether Hsp110 was over-expressed (FIG. 9B). Furthermore, the over-expression of Hsp110 in the McArdle cells in the presence of a microsomal triglyceride transfer protein (MTP) inhibitor (BMS-200150; Jamil, H., D. A. Gordon, D. C. Eustice, C. M. Brooks, J. K. Dickson, Jr., Y. Chen, B. Ricci, C.-H. Chu, T. W. Harrity, C. P. Ciosek, Jr., S. A. Biller, R. E. Gregg, and J. R. Wetterau. 1996. An inhibitor of the microsomal triglyceride transfer protein inhibits apoB secretion from HepG2 cells. Proc Natl Acad Sci USA. 93, 11991-95) increased the percent of apoB recovered in the lysate and medium fractions from 14% to 28% (data not shown).

[2] = system: ApoB100; test: ApoB100 biogenesis and secretion from McArdle cells (pulse-chase) on Hsp110 over-expression; type: cell-based, rat
Description: as §1, §2

[3] = system: ApoB48; test: In vitro ApoB48 degradation assay in yeast cytosol with added purified protein; type: biochemical; settings: purified protein added to wild type (SSE1) or delete (sse1) cytosols
Description: In vitro Analysis of ApoB Degradation: ^35S methionine labeled ApoB48 was synthesized in the presence of canine pancreatic microsomes (DPM; Promega, Madison, Wis.) using the SP6-TNT Kit (Promega) and plasmid pSPB48 (see above) as previously described (Gusarova, et al., 2001). The reaction mixture was then layered onto 1 mL SH buffer (0.25M sucrose, 5 mM Hepes, pH 7.4) and centrifuged at 100,000g for 30 min at 4° C. The microsomal pellets were resuspended in 12 μl of 2×PH buffer (40 mM HEPES, pH 7.4, 220 mM KCl, 10 mM MgCl2) and pooled. Cytosol, prepared as previously described (McCracken and Brodsky, 1996), was diluted to a specified concentration and pre-incubated with 0.25 mM MG132 (Peptides International) or an equivalent volume of DMSO for 15 min on ice. Following the pre-incubation, cytosol and ApoB48 were mixed 1:1 with these reagents at final concentrations of, 2 mM ATP, 10 mM creatine phosphate, and 100μg/mL creatine phosphokinase. Aliquots of the reaction were incubated at 37° C. for 5, 15 and 30 min or the indicated times and the reaction was quenched by adding an equal volume of 2×Urea Buffer (125 mM Tris, pH 6.8, 4% SDS, 6M Urea, 1 mM EDTA, 10 mM DTT, 250 mM β-mercaptoethanol, 20% Glycerol) and the mixture was heated at 96° C. for 4 min. […] Phosphorimager data was analyzed using Image Gauge software (Fuji Film Science Lab). […]

B1: Hsp110: human Hsp110 over-expressed from an expression vector in McArdle cells (protein, UniProt Q92598 2-858, looked up)
Heat shock protein 105 kDa: SVVGLDVGSQSCYIAVARAGGIETIANEFSDRCTPSVISFGSKNRTIGVAAKNQQITHANNTVSNFKRFHGRAFNDPFIQKEKENLSYDLVPLKNGGVGIKVMYMGEEHLFSVEQITAMLLTKLKETAENSLKKPVTDCVISVPSFFTDAERRSVLDAAQIVGLNCLRLMNDMTAVALNYGIYKQDLPSLDEKPRIVVFVDMGHSAFQVSACAFNKGKLKVLGTAFDPFLGGKNFDEKLVEHFCAEFKTKYKLDAKSKIRALLRLYQECEKLKKLMSSNSTDLPLNIECFMNDKDVSGKMNRSQFEELCAELLQKIEVPLYSLLEQTHLKVEDVSAVEIVGGATRIPAVKERIAKFFGKDISTTLNADEAVARGCALQCAILSPAFKVREFSVTDAVPFPISLIWNHDSEDTEGVHEVFSRNHAAPFSKVLTFLRRGPFELEAFYSDPQGVPYPEAKIGRFVVQNVSAQKDGEKSRVKVKVRVNTHGIFTISTASMVEKVPTEENEMSSEADMECLNQRPPENPDTDKNVQQDNSEAGTQPQVQTDAQQTSQSPPSPELTSEENKIPDADKANEKKVDQPPEAKKPKIKVVNVELPIEANLVWQLGKDLLNMYIETEGKMIMQDKLEKERNDAKNAVEEYVYEFRDKLCGPYEKFICEQDHQNFLRLLTETEDWLYEEGEDQAKQAYVDKLEELMKIGTPVKVRFQEAEERPKMFEELGQRLQHYAKIAADFRNKDEKYNHIDESEMKKVEKSVNEVMEWMNNVMNAQAKKSLDQDPVVRAQEIKTKIKELNNTCEPVVTQPKPKIESPKLERTPNGPNIDKKEEDLEDKNNFGAEPPHQNGECYPNEKNSVNMDLD
effect on albumin secretion [1]: no effect | percent of apoB recovered in the lysate and medium fractions ([2]; Hsp110 over-expression in the presence of MTP inhibitor BMS-200150, data not shown): 28% | amount of ApoB100 in cell extracts ([2]; especially notable at 30 min time point): concomitant increase | increase in the amount of ApoB 100 secreted ([2]; medium, Hsp110 vector vs vector control): ~2 fold

B2: Sse1p: active, recombinant purified yeast Hsp110 homolog Sse1p (GenBank NP_015219) (protein)
chain: STPFGLDLGNNNSVLAVARNRGIDIVVNEVSNRSTPSVVGFGPKNRYLGETGKNKQTSNIKNTVANLKRIIGLDYHHPDFEQESKHFTSKLVELDDKKTGAEVRFAGEKHVFSATQLAAMFIDKVKDTVKQDTKANITDVCIAVPPWYTEEQRYNIADAARIAGLNPVRIVNDVTAAGVSYGIFKTDLPEGEEKPRIVAFVDIGHSSYTCSIMAFKKGQLKVLGTACDKHFGGRDFDLAITEHFADEFKTKYKIDIRENPKAYNRILTAAEKLKKVLSANTNAPFSVESVMNDVDVSSQLSREELEELVKPLLERVTEPVTKALAQAKLSAEEVDFVEIIGGTTRIPTLKQSISEAFGKPLSTTLNQDEAIAKGAAFICAIHSPTLRVRPFKFEDIHPYSVSYSWDKQVEDEDHMEVFPAGSSFPSTKLITLNRTGDFSMAASYTDITQLPPNTPEQIANWEITGVQLPEGQDSVPVKLKLRCDPSGLHTIEEAYTIEDIEVEEPIPLPEDAPEDAEQEFKKVTKTVKKDDLTIVAHTFGLDAKKLNELIEKENEMLAQDKLVAETEDRKNTLEEYIYTLRGKLEEEYAPFASDAEKTKLQGMLNKAEEWLYDEGFDSIKAKYIAKYEELASLGNIIRGRYLAKEEEKKQAIRSKQEASQMAAMAEKLAAQRKAEAEKKEEKKDTEGDVDMD
effect on ApoB48 in vitro [3]: stabilizes ApoB48
